Positions count from the first letter of the chain named. Names may count otherwise. Where only a bound is given, the exact number is not on record here.

Sequences and labels used below:
B1: anti-HER2 Fab HER20003 (Fab, V domains shown)
VH: QVQLVQSGAEVKKPGESLKISCKGSGYSFTSYWIAWVRQMPGKGLEYMGLIYPGDSDTKYSPSFQGQVTISVDKSVSTAYLQWSSLKPSDSAVYFCARHDVAYCSSSRCLTWPEYFQHWGQGTLVTVSS
VL: QSVLTQPPSVSAAPGQKVTISCSGSSSNIGNNYVSWYQQLPGTAPKLLIYGHTNRPAGVPDRFSGSKSGTSASLAISGFRSEDEADYYCASWDYTLSGWVFGGGTKLTVL
notes: as the heavy chain of m31 (G98A) with another CDR H3; as the light chain of m31; source: CHO cells, transiently transfected, purified (CaptureSelect CH1-XL)
B2: anti-HER2 Fab HER20008 (Fab, V domains shown)
VH: B1 VH with S105D, S107D, L110A, T111K
VL: B1 VL
notes: as the heavy chain of m31 (G98A) with another CDR H3; as the light chain of m31; From the HER2affmat library; source: CHO cells, transiently transfected, purified (CaptureSelect CH1-XL)
B3: anti-HER2 Fab HER20015 (Fab, V domains shown)
VH: B1 VH with A102G, S105D, S106T, S107P, R108T, L110D, T111K
VL: B1 VL
notes: as the heavy chain of m31 (G98A) with another CDR H3; as the light chain of m31; From the ML set (ml/mut); source: CHO cells, transiently transfected, purified (CaptureSelect CH1-XL)
B4: anti-HER2 Fab HER20009 (Fab, V domains shown)
VH: B1 VH with T111E
VL: B1 VL
notes: as for B2
B5: anti-HER2 Fab HER20006 (Fab, V domains shown)
VH: B1 VH with A102G, Y103W, S105T, R108N, L110A, T111K
VL: B1 VL
notes: as for B2
B6: anti-HER2 Fab HER20007 (Fab, V domains shown)
VH: B1 VH with A102G, S105M, R108N, L110A, T111K
VL: B1 VL
notes: as for B2
B7: anti-HER2 Fab HER20013 (Fab, V domains shown)
VH: B1 VH with A102G, S106T
VL: B1 VL
notes: as the heavy chain of m31 (G98A) with another CDR H3; as the light chain of m31; Top clone of the ML set (ml/mut); source: CHO cells, transiently transfected, purified (CaptureSelect CH1-XL)
B8: anti-HER2 Fab HER20011 (Fab, V domains shown)
VH: B1 VH with A102G, Y103L, R108N, L110A, T111K
VL: B1 VL
notes: as for B2
B9: anti-HER2 Fab HER20010 (Fab, V domains shown)
VH: B1 VH with T111D
VL: B1 VL
notes: as for B2
B10: anti-HER2 Fab HER20025 (Fab, V domains shown)
VH: B1 VH with A102G, S105D, S106T, S107P, R108T, L110N, T111K
VL: B1 VL
notes: as the heavy chain of m31 (G98A) with another CDR H3; as the light chain of m31; From the random set (random/mut); source: CHO cells, transiently transfected, purified (CaptureSelect CH1-XL)
B11: anti-HER2 Fab HER20004 (Fab, V domains shown)
VH: B1 VH with A102G, Y103Q, S105D, R108N, L110A, T111K
VL: B1 VL
notes: as for B1
B12: anti-HEL nanobody C2 (VHH)
VHH: QVQLQESGGGLVQAGGSLRLSCAASGNISADASMGWYRQAPGKEREFVAAIARGATTYYADSVKGRFTISRDNAKNTVYLQMNSLKPEDTAVYYCAVDQYDVTKRYIGHIYWGQGTQVTVSS
notes: synthetic nanobody from the yeast surface display library, picked as a random colony after R3 MACS; Framework is that of the library; source: E. coli, periplasmic extract (vector pSBinit)
B13: anti-HEL nanobody M5 (VHH)
VHH: QVQLQESGGGLVQAGGSLRLSCAASGSIFYYTDMGWYRQAPGKEREFVASIGYGGITYYADSVKGRFTISRDNAKNTVYLQMNSLKPEDTAVYYCAVQRSFESYGYWGHVYWGQGTQVTVSS
notes: synthetic nanobody from the yeast surface display library; also called VHH-M5; source: E. coli, periplasmic extract (vector pSBinit)
B14: anti-HEL nanobody M6 (VHH)
VHH: B13 VHH with F29S, Y30R, Y31D, T32P, G52S, Y53G, G55T, I56T
notes: synthetic nanobody from the yeast surface display library; also called VHH-M6; source: E. coli, periplasmic extract (vector pSBinit)
B15: anti-HEL nanobody M15 (VHH)
VHH: QVQLQESGGGLVQAGGSLRLSCAASGTISSQKLMGWYRQAPGKEREFVAAINDGATTNYADSVKGRFTISRDNAKNTVYLQMNSLKPEDTAVYYCAAYYDVRGYYWGTFGYWGQGTQVTVSS
notes: synthetic nanobody from the yeast surface display library; also called VHH-M15; source: E. coli, periplasmic extract (vector pSBinit)
B16: anti-HEL nanobody C1 (VHH)
VHH: QVQLQESGGGLVQAGGSLRLSCAASGSIFWAGYMGWYRQAPGKEREFVAAIDYGANTYYADSVKGRFTISRDNAKNTVYLQMNSLKPEDTAVYYCAVDRQPYYRRDNSHLYWGQGTQVTVSS
notes: as for B12

The target in one test is T1, human epidermal growth factor receptor 2 (HER2), biotinylated (Homo sapiens, UniProt P04626, biotin).
T1 construct: biotinylated human HER2, bought; also called ERBB2; source: bought: Acro Biosystems (HE2-H822R)
The test is described as follows: BLI; human HER2–biotin (5 µg ml^−1, 30 s) loaded on SA tip; purified Fab at 20 nM; DPBS with 0.1% BSA and 0.02% Tween 20; association 300 s, dissociation 600 s; one concentration, 1:1 fit. The following applies: both partners purified. For orientation: Biolayer interferometry detects binding as a change in optical thickness at a sensor tip.
Molecule B1 gave a Kd of 2.8 nM.
As for B2, the binding result is on record as “binds”.
For B3, the “fold improvement in affinity over G98A” value was above 1000 fold.
Still for that read-out and setting: for B4 the value was around 300 fold; for B5, around 300 fold.
As for B6, the binding result is listed as “binds”.
In turn, B7 displayed a Kd of 0.0607 nM.
Take B8: the binding result was “binds”.
Turning to B9, the “fold improvement in affinity over G98A” value is around 300 fold.
Turning to B10, the Kd was 0.283 nM.
B11 had a Kd of 3.4 nM.

In another test the target is T2, hen egg lysozyme (HEL), biotinylated (Gallus gallus (hen egg white), UniProt P00698, biotin).
T2 construct: hen egg lysozyme, bought as HEL–biotin; In deep screening it was pre-complexed 1:1 with AF532-labelled streptavidin; in BLI it was loaded on a streptavidin tip; source: bought: GeneTex (GTX82960-pro)
T2 sequence (P00698 19-147): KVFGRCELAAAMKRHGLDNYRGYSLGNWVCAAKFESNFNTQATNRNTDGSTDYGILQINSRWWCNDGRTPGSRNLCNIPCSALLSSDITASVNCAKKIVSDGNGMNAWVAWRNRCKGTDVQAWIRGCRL
The test is described as follows: BLI; HEL–biotin (25 µg ml^−1, 400 s) loaded on SA tip; nanobody from periplasmic extract at 50 nM in SuperBlock PBS; association 400 or 500 s, dissociation 600 s; referenced to a non-loaded SA tip; one concentration, 1:1 fit; Octet Red384. The following applies: one partner purified.
Take B12: the binding result was “binds”.
B13: binding was put at a Kd of 19 nM.
Same read-out and setting: under B14 stands 14.2 nM; under B15, 9.81 nM.
On to B16, for which the binding result was “binds”.

What is called Kd is the concentration at which binding is half-saturated.

Source of the values: publication PMC10963267, “Rapid discovery of high-affinity antibodies via massively parallel sequencing, ribosome display and affinity screening” (Nature Biomedical Engineering, 2023).
